The values below come from patent US20030228654A1, “Method for producing antimicrobial protein and fusion protein” (KABUSHIKI KAISHA TOYOTA CHUO KENKYUSHO, priority 2000, published 2003).

This test relates to Ceratocystis fimbriata. The experiment in a line: Assay of antimicrobial activity: growth inhibition of Ceratocystis fimbriata spore suspension in 96-well microplate, absorbance at 415 nm. In kind it is cell-based. The following applies: Factor Xa-cleaved, concentrated protein solution 30 μl per well; MES buffer pH 6; 26° C.; absorbance 415 nm, 48 hours vs 30 minutes. The protocol:
As shown in SEQ ID No: 1, 2 or 4, the fusion proteins of Examples 1 and 2 and Comparative Example 2 thus dialyzed retained the recognition sequence of a protease Factor Xa in between thionin and the partner protein. Then, the fusion protein was subjected to cleavage with Factor Xa of 30 μg per 1 mg of each fusion protein described above at 30° C. overnight.
The protein solution recovered by the cleavage procedures was concentrated to 30 μl using Microcon-3 (MWCO: 3000) as a concentration unit with a filtration membrane. Such great number of concentrated sample solutions were divided at 30 μl each in the individual wells of a 96-well microplate, followed by addition of 10 μl of 200 mM MES [2-(N-morpholino)ethanesulfonic acid] buffer at pH 6 and 60 μL of a spore suspension of Ceratocystis fimbriata (100,000 spores per 1 ml-80% potato dextrose broth). Then, the resulting mixtures were cultured at 26° C. […]
Then, the absorbance 30 minutes and 48 hours later was measured at 415 nm with a microplate reader of Model 3550. The growth inhibition was determined by the following formula (1). Herein, A represents the value obtained by subtracting the absorbance measured 30 minutes later from that measured 48 hours later in each concentrated sample solution, and B represents the same value in a solution not containing the sample. […]

B1: Example 2: Fusion protein of barley thionin and PDI from Fumicola insolens (SEQ ID No: 2); refolded, cleaved with Factor Xa (protein)
chain: EKHMIEGRMKSCCRSTLGRNCYNLCRVRGAQKLCAGVCRCKLTSSGKCPTGFPKMIEGRTLALVSNSDEPDTVKYCNLGCRASMCDYMVNAAADDEEMKLYLENCGDACVNFCNGDAGLTSLTA
modifications: Hordeum vulgare
For the molecule B1, the “Growth inhibition (%)” value was determined as 99.1%.
